Reference: patent US20180142016A1

Molecular target: human ROR1 extracellular domain (ECD) protein (human) (UniProt Q01973)
Test: ForteBio Octet; pseudo association rate of Wnt5a binding to ROR1 in the presence of the negative control antibody, not a rate of the antibody itself

Sequence of human ROR1 extracellular domain (ECD) protein (human) (Q01973 30-406 limits assumed): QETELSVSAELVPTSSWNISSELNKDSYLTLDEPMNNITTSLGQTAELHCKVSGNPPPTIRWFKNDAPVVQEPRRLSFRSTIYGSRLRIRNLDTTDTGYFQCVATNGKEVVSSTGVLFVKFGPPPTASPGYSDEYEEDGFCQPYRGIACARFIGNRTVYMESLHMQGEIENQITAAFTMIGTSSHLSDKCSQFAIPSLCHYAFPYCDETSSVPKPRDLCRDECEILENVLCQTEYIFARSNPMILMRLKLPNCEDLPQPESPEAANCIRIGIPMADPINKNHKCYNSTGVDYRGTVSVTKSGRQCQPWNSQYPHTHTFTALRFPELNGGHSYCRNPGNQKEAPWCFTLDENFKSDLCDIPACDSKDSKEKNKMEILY

mAb Control (antibody) gave a Pesudo ka of 21000 M⁻¹ s⁻¹.
